Results published in US7794710.

Biological target: human B7-H1 (hB7-H1) on the cell surface (human) (UniProt Q9NZQ7)
Assay: cell-based or functional assay

UniProt Q9NZQ7, sequence (Q9NZQ7 19-290 limits assumed): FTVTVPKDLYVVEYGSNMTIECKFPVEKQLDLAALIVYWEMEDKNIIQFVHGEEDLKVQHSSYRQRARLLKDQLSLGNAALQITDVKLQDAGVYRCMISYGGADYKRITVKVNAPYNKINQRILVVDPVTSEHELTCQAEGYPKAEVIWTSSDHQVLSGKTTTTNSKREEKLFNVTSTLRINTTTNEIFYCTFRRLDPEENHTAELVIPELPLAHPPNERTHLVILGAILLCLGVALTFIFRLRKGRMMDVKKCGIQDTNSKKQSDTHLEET

- inhibition of apoptosis of M15 CTL cultured with B7-H1/624mel cells: > 50%
Substance: 5H1 mAb specific for hB7-H1 (antibody)
